The test deals with GLUP (macrocyclic version of glup) (disulfide-cyclization and C-terminal amidation (results); head-to-side-chain cross-linking with 1,3-dibromomethylbenzene (methods)).

B1: TEAD4, purified recombinant protein (natural protein)
chain: PAPPWQGRSVASSKLWMLEFSAFLEQQQDPDTYNKHLFVHIGQSSPSYSDPYLEAVDIRQIYDKFPEKKGGLKDLFERGPSNAFFLVKFWADLNTNIEDEGSSFYGVSSQYESPENMIITCSTKVCSFGKQVVEKVETEYARYENGHYSYRIHRSPLCEYMINFIHKLKHLPEKYMMNSVLENFTILQVVTNRDTQETLLCIAYVFEVSASEHGAQHHIYRLVKE
Regarding B1, the Kd (as a rule, a measure of binding affinity in units of concentration) came out at 4.55 µM. This counts as single-digit micromolar.

Source of the values: paper PMC11574045 (2024).
